Data reported in publication PMC6751238, “The first fungal laccase with an alkaline pH optimum obtained by directed evolution and its application in indigo dye decolorization” (AMB Express, 2019).

Tests used:
purified protein [1] = substrate: COc1ccccc1O; assay: purified protein
purified protein [2] = substrate: COc1cccc(OC)c1O; assay: purified protein; assay type: biochemical, Coprinopsis cinerea
[3] = pH 6.5, 70 °C as printed in table (text says 60 °C), pH 6.5
[4] = PIE5, pH 8.5, 60 °C, pH 8.5, 60.0 °C

B1: rLcc9 (Coprinopsis cinerea okayama7#130; E116K/I393T) (protein)
chain: QILGPTSTMTVSNIDASPDGFNRPVVAVNGQHPGPLVRANKGDNFRINVVNDLNDPTMLRQTSVHWHGVFQHGTAWADGPDGVTQCPIAQNGESFKYRFNAGNEAGTFWYHSHFGTQYCDGLRGPLVIYDPNDPHRNLYDVDNADTVITLVDWYHLQAPSIEGPALSDATLINGKGRRPGGPETDIAIVNVQRNRRYRFRLVSMSCDPNYKFSIDGHKLTVIEADGQLTEPLMVDEIQIFAGQRYSFVLSANRPVGNYWIRAIPNVGSNNLPNFSSGGINSAILRYAGAPNANPTSTPVTNPVALHESNLHALLNPGAPGGSGPADENIVLQMGLGPAGFEINGVTWANPDSPVMVQIMNGVPPADIVPSGATHTLPRNRVVEVSIPGFELAGPHPFHLHGHAFSVVRSAGSSTYNYENPVRRDVVDVGGASDNVTIRFTTDNPGPWFFHCHIEFHLVLGLAMVFMEAPSDIPSTSPPPPSWSELCPKFESLPASATSIQIVPTP
Km (purified protein [1]; pH 6.5, 60 °C, pH 6.5, 60.0 °C): 110 µM
kcat (purified protein [1]; pH 6.5, 60 °C, pH 6.5, 60.0 °C): 46 s⁻¹
kcat/Km (purified protein [1]; pH 6.5, 60 °C, pH 6.5, 60.0 °C): 390000 M⁻¹ s⁻¹

B2: rLcc9 (Coprinopsis cinerea okayama7#130) (protein)
chain: QILGPTSTMTVSNIDASPDGFNRPVVAVNGQHPGPLVRANKGDNFRINVVNDLNDPTMLRQTSVHWHGVFQHGTAWADGPDGVTQCPIAQNGESFEYRFNAGNEAGTFWYHSHFGTQYCDGLRGPLVIYDPNDPHRNLYDVDNADTVITLVDWYHLQAPSIEGPALSDATLINGKGRRPGGPETDIAIVNVQRNRRYRFRLVSMSCDPNYKFSIDGHKLTVIEADGQLTEPLMVDEIQIFAGQRYSFVLSANRPVGNYWIRAIPNVGSNNLPNFSSGGINSAILRYAGAPNANPTSTPVTNPVALHESNLHALLNPGAPGGSGPADENIVLQMGLGPAGFEINGVTWANPDSPVMVQIMNGVPPADIVPSGAIHTLPRNRVVEVSIPGFELAGPHPFHLHGHAFSVVRSAGSSTYNYENPVRRDVVDVGGASDNVTIRFTTDNPGPWFFHCHIEFHLVLGLAMVFMEAPSDIPSTSPPPPSWSELCPKFESLPASATSIQIVPTP
notes: lcc9 cDNA in pPIC9K (EcoRI/NotI), secreted from Pichia pastoris GS115, purified (DEAE-Sepharose); PIE5 = E116K/N229D/I393T
Km (purified protein [1]; [3]): 90 µM
kcat (purified protein [1]; [3]): 22.8 s⁻¹
kcat/Km (purified protein [1]; [3]): 250000 M⁻¹ s⁻¹
Km (purified protein [2]; pH 6.5, 60 °C): 2.3 mM
kcat (purified protein [2]; pH 6.5, 60 °C): 69.4 s⁻¹
kcat/Km (purified protein [2]; pH 6.5, 60 °C): 30000 M⁻¹ s⁻¹

B3: rLcc9 (Coprinopsis cinerea okayama7#130; N229D) (protein)
chain: QILGPTSTMTVSNIDASPDGFNRPVVAVNGQHPGPLVRANKGDNFRINVVNDLNDPTMLRQTSVHWHGVFQHGTAWADGPDGVTQCPIAQNGESFEYRFNAGNEAGTFWYHSHFGTQYCDGLRGPLVIYDPNDPHRNLYDVDNADTVITLVDWYHLQAPSIEGPALSDATLINGKGRRPGGPETDIAIVNVQRNRRYRFRLVSMSCDPDYKFSIDGHKLTVIEADGQLTEPLMVDEIQIFAGQRYSFVLSANRPVGNYWIRAIPNVGSNNLPNFSSGGINSAILRYAGAPNANPTSTPVTNPVALHESNLHALLNPGAPGGSGPADENIVLQMGLGPAGFEINGVTWANPDSPVMVQIMNGVPPADIVPSGAIHTLPRNRVVEVSIPGFELAGPHPFHLHGHAFSVVRSAGSSTYNYENPVRRDVVDVGGASDNVTIRFTTDNPGPWFFHCHIEFHLVLGLAMVFMEAPSDIPSTSPPPPSWSELCPKFESLPASATSIQIVPTP
notes: as for B2
Km (purified protein [1]; pH 8.0, 60 °C, pH 8.0, 60.0 °C): 370 µM
kcat (purified protein [1]; pH 8.0, 60 °C, pH 8.0, 60.0 °C): 87.3 s⁻¹
kcat/Km (purified protein [1]; pH 8.0, 60 °C, pH 8.0, 60.0 °C): 230000 M⁻¹ s⁻¹
Km (purified protein [2]; pH 8.0, 60 °C): 2.6 mM
kcat (purified protein [2]; pH 8.0, 60 °C): 66.2 s⁻¹
kcat/Km (purified protein [2]; pH 8.0, 60 °C): 25000 M⁻¹ s⁻¹

B4: rLcc9 (Coprinopsis cinerea okayama7#130; E116K/N229D) (protein)
chain: QILGPTSTMTVSNIDASPDGFNRPVVAVNGQHPGPLVRANKGDNFRINVVNDLNDPTMLRQTSVHWHGVFQHGTAWADGPDGVTQCPIAQNGESFKYRFNAGNEAGTFWYHSHFGTQYCDGLRGPLVIYDPNDPHRNLYDVDNADTVITLVDWYHLQAPSIEGPALSDATLINGKGRRPGGPETDIAIVNVQRNRRYRFRLVSMSCDPDYKFSIDGHKLTVIEADGQLTEPLMVDEIQIFAGQRYSFVLSANRPVGNYWIRAIPNVGSNNLPNFSSGGINSAILRYAGAPNANPTSTPVTNPVALHESNLHALLNPGAPGGSGPADENIVLQMGLGPAGFEINGVTWANPDSPVMVQIMNGVPPADIVPSGAIHTLPRNRVVEVSIPGFELAGPHPFHLHGHAFSVVRSAGSSTYNYENPVRRDVVDVGGASDNVTIRFTTDNPGPWFFHCHIEFHLVLGLAMVFMEAPSDIPSTSPPPPSWSELCPKFESLPASATSIQIVPTP
Km (purified protein [1]; pH 8.0, 60 °C, pH 8.0, 60.0 °C): 340 µM
kcat (purified protein [1]; pH 8.0, 60 °C, pH 8.0, 60.0 °C): 75.4 s⁻¹
kcat/Km (purified protein [1]; pH 8.0, 60 °C, pH 8.0, 60.0 °C): 210000 M⁻¹ s⁻¹

B5: rLcc9 (Coprinopsis cinerea okayama7#130; E116K) (protein)
chain: QILGPTSTMTVSNIDASPDGFNRPVVAVNGQHPGPLVRANKGDNFRINVVNDLNDPTMLRQTSVHWHGVFQHGTAWADGPDGVTQCPIAQNGESFKYRFNAGNEAGTFWYHSHFGTQYCDGLRGPLVIYDPNDPHRNLYDVDNADTVITLVDWYHLQAPSIEGPALSDATLINGKGRRPGGPETDIAIVNVQRNRRYRFRLVSMSCDPNYKFSIDGHKLTVIEADGQLTEPLMVDEIQIFAGQRYSFVLSANRPVGNYWIRAIPNVGSNNLPNFSSGGINSAILRYAGAPNANPTSTPVTNPVALHESNLHALLNPGAPGGSGPADENIVLQMGLGPAGFEINGVTWANPDSPVMVQIMNGVPPADIVPSGAIHTLPRNRVVEVSIPGFELAGPHPFHLHGHAFSVVRSAGSSTYNYENPVRRDVVDVGGASDNVTIRFTTDNPGPWFFHCHIEFHLVLGLAMVFMEAPSDIPSTSPPPPSWSELCPKFESLPASATSIQIVPTP
Km (purified protein [1]; pH 6.5, 60 °C, pH 6.5, 60.0 °C): 320 µM
kcat (purified protein [1]; pH 6.5, 60 °C, pH 6.5, 60.0 °C): 85.8 s⁻¹
kcat/Km (purified protein [1]; pH 6.5, 60 °C, pH 6.5, 60.0 °C): 250000 M⁻¹ s⁻¹

B6: rLcc9 (Coprinopsis cinerea okayama7#130; E116K/I393T/N229D) (protein)
chain: QILGPTSTMTVSNIDASPDGFNRPVVAVNGQHPGPLVRANKGDNFRINVVNDLNDPTMLRQTSVHWHGVFQHGTAWADGPDGVTQCPIAQNGESFKYRFNAGNEAGTFWYHSHFGTQYCDGLRGPLVIYDPNDPHRNLYDVDNADTVITLVDWYHLQAPSIEGPALSDATLINGKGRRPGGPETDIAIVNVQRNRRYRFRLVSMSCDPDYKFSIDGHKLTVIEADGQLTEPLMVDEIQIFAGQRYSFVLSANRPVGNYWIRAIPNVGSNNLPNFSSGGINSAILRYAGAPNANPTSTPVTNPVALHESNLHALLNPGAPGGSGPADENIVLQMGLGPAGFEINGVTWANPDSPVMVQIMNGVPPADIVPSGATHTLPRNRVVEVSIPGFELAGPHPFHLHGHAFSVVRSAGSSTYNYENPVRRDVVDVGGASDNVTIRFTTDNPGPWFFHCHIEFHLVLGLAMVFMEAPSDIPSTSPPPPSWSELCPKFESLPASATSIQIVPTP
notes: as for B2
Km (purified protein [1]; [4]): 330 µM
kcat (purified protein [1]; [4]): 62.9 s⁻¹
kcat/Km (purified protein [1]; [4]): 180000 M⁻¹ s⁻¹
Km (purified protein [2]; PIE5, pH 8.0, 60 °C): 5.7 mM
kcat (purified protein [2]; PIE5, pH 8.0, 60 °C): 43.5 s⁻¹
kcat/Km (purified protein [2]; PIE5, pH 8.0, 60 °C): 7500 M⁻¹ s⁻¹

B7: rLcc9 (Coprinopsis cinerea okayama7#130; I393T) (protein)
chain: QILGPTSTMTVSNIDASPDGFNRPVVAVNGQHPGPLVRANKGDNFRINVVNDLNDPTMLRQTSVHWHGVFQHGTAWADGPDGVTQCPIAQNGESFEYRFNAGNEAGTFWYHSHFGTQYCDGLRGPLVIYDPNDPHRNLYDVDNADTVITLVDWYHLQAPSIEGPALSDATLINGKGRRPGGPETDIAIVNVQRNRRYRFRLVSMSCDPNYKFSIDGHKLTVIEADGQLTEPLMVDEIQIFAGQRYSFVLSANRPVGNYWIRAIPNVGSNNLPNFSSGGINSAILRYAGAPNANPTSTPVTNPVALHESNLHALLNPGAPGGSGPADENIVLQMGLGPAGFEINGVTWANPDSPVMVQIMNGVPPADIVPSGATHTLPRNRVVEVSIPGFELAGPHPFHLHGHAFSVVRSAGSSTYNYENPVRRDVVDVGGASDNVTIRFTTDNPGPWFFHCHIEFHLVLGLAMVFMEAPSDIPSTSPPPPSWSELCPKFESLPASATSIQIVPTP
notes: as for B2
Km (purified protein [1]; pH 7.0, 60 °C, pH 7.0, 60.0 °C): 140 µM
kcat (purified protein [1]; pH 7.0, 60 °C, pH 7.0, 60.0 °C): 83.9 s⁻¹
kcat/Km (purified protein [1]; pH 7.0, 60 °C, pH 7.0, 60.0 °C): 570000 M⁻¹ s⁻¹
Km (purified protein [2]; pH 7.0, 60 °C): 1.2 mM
kcat (purified protein [2]; pH 7.0, 60 °C): 49.2 s⁻¹
kcat/Km (purified protein [2]; pH 7.0, 60 °C): 38000 M⁻¹ s⁻¹

B8: rLcc9 (Coprinopsis cinerea okayama7#130; I393T/N229D) (protein)
chain: QILGPTSTMTVSNIDASPDGFNRPVVAVNGQHPGPLVRANKGDNFRINVVNDLNDPTMLRQTSVHWHGVFQHGTAWADGPDGVTQCPIAQNGESFEYRFNAGNEAGTFWYHSHFGTQYCDGLRGPLVIYDPNDPHRNLYDVDNADTVITLVDWYHLQAPSIEGPALSDATLINGKGRRPGGPETDIAIVNVQRNRRYRFRLVSMSCDPDYKFSIDGHKLTVIEADGQLTEPLMVDEIQIFAGQRYSFVLSANRPVGNYWIRAIPNVGSNNLPNFSSGGINSAILRYAGAPNANPTSTPVTNPVALHESNLHALLNPGAPGGSGPADENIVLQMGLGPAGFEINGVTWANPDSPVMVQIMNGVPPADIVPSGATHTLPRNRVVEVSIPGFELAGPHPFHLHGHAFSVVRSAGSSTYNYENPVRRDVVDVGGASDNVTIRFTTDNPGPWFFHCHIEFHLVLGLAMVFMEAPSDIPSTSPPPPSWSELCPKFESLPASATSIQIVPTP
Km (purified protein [1]; pH 8.0, 60 °C, pH 8.0, 60.0 °C): 340 µM
kcat (purified protein [1]; pH 8.0, 60 °C, pH 8.0, 60.0 °C): 82.5 s⁻¹
kcat/Km (purified protein [1]; pH 8.0, 60 °C, pH 8.0, 60.0 °C): 230000 M⁻¹ s⁻¹
